The data set concerns the molecule itself. As to the kind of experiment: crystal structure.

B1: FolM alternative dihydrofolate reductase 1 from Brucella canis (enzyme)
chain: MVLNDPEARMVANCPVLVTGGARRIGKAIVEDLASHGFPVAIHCNRSLDEGEAIANRINDSGGNACVVQADLEGDVRGLVKQASDRIGPIRLLVNNASLFQEDKVGALDMALWDRHFAVHLKTPVILAEDMRKALPEDQDGLVVNIIDQRVWKLNPQFFSYTLSKTALWNATRTLAQALAPRIRVNAIAPGPTLPSERQRPEDFERQVSKLPLQRAPELPEFGRTVRYFWENRSITGQMIALDGGQHLAWETPDIAELPNK
notes: also called BcFolM; His-BcFolM
As a reminder, the stoichiometry N is a count of units in the complex or per binding partner. For B1, the “stoichiometry N” value was found to be 4.

B2: FolM alternative dihydrofolate reductase 1 from Brucella suis (enzyme)
chain: MLNDPEARMVANCPVLVTGGARRIGKAIVEDLASHGFPVAIHCNRSLDEGEAIANRINDSGGNACVVQADLEGDVRGLVKQASDRIGPIRLLVNNASLFQEDKVGALDMALWDRHFAVHLKTPVILAEDMRKALPEDQDGLVVNIIDQRVWKLNPQFFSYTLSKSALWNATRTLAQALAPRIRVNAIAPGPTLPSERQRPEDFERQVSKLPLQRAPELPEFGRTVRYFWENRSITGQMIALDGGQHLAWETPDIAGITE
notes: also called BsFolM; His-BsFolM
Consider B2, for which the “stoichiometry N” value is 4.

The record behind these values is article PMC8725004, “Crystal structures of FolM alternative dihydrofolate reductase 1 from Brucella suis and Brucella canis” (Acta Crystallographica. Section F, Structural Biology …, 2022).
